Test [1] deals with EGFR-GFP (GFP-labelled epidermal growth factor receptor) in SW620-EGFR-GFP cells (human) (UniProt P00533).
For test [2] the target is unchanged. This is another data set of the same source.

In test [1], “EGF-TMR (epidermal growth factor conjugated to tetramethylrhodamine) (ligand)” had a percent of EGFR foci colocalized with EGF (3-60 min) of 40% and a percent of all tracked EGFR molecules in foci colocalized with EGF of 64%. Moreover, in test [2], the mean relative stoichiometry EGFR:EGF is 4.2 EGFR:EGF and the stoichiometry N was 1.9 EGFR:EGF.

These data come from article doi:10.1101/2020.07.11.198572.
